Series [1] concerns the target T1, DG-PprI (IrrE) (Deinococcus geothermalis, UniProt Q1J1D6 1-289).
T1 sequence: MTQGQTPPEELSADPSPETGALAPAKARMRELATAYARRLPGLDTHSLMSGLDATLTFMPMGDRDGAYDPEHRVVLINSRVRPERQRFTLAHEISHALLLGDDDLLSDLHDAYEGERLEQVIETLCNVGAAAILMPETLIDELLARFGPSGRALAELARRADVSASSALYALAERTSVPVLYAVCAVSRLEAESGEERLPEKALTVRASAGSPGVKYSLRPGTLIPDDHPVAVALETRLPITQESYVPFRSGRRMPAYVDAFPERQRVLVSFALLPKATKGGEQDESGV
Nature of the series: EMSA; 1 or 2 uM protein, 0.1 uM DNA; EMSA: 150 mM NaCl, 20 mM Tris-HCl pH 8.0, 0.1 mg/ml BSA, 0.1 uM FAM-labeled nucleic acid, 0/1/2 uM protein, room temperature 30 min, 10% native PAGE in 1x TB. The following applies: protein: recombinant, tags: tag removed. (In general: In EMSA bound probe runs differently from free probe, usually more slowly.)

Series [2] deals with T1, DG-PprI (IrrE). Nature of the series: X-ray crystallography; Mn2+; 2.2 A; PprI dimer in asymmetric unit; EMSA: 150 mM NaCl, 20 mM Tris-HCl pH 8.0, 0.1 mg/ml BSA, 0.1 uM FAM-labeled nucleic acid, 0/1/2 uM protein, room temperature 30 min, 10% native PAGE in 1x TB. The following applies: protein: recombinant; tags: tag removed.
Series [3] concerns the target T1, DG-PprI (IrrE). Nature of the series: EMSA; 1 or 2 uM protein, 0.1 uM RNA; EMSA: 150 mM NaCl, 20 mM Tris-HCl pH 8.0, 0.1 mg/ml BSA, 0.1 uM FAM-labeled nucleic acid, 0/1/2 uM protein, room temperature 30 min, 10% native PAGE in 1x TB. The following applies: protein: recombinant; tags: tag removed; label: 5' FAM.

On to CGCTCTTCGCCATTCTCTTGAAGTTTCAAACTTGG (ssDNA) [35nt ssDNA], for which the binding result in series [1] (label: 5' FAM) is “binds”.

B1: 35 bp dsDNA (dsDNA)
DNA 1: CGCTCTTCGCCATTCTCTTGAAGTTTCAAACTTGG
DNA 2: CCAAGTTTGAAACTTCAAGAGAATGGCGAAGAGCG
With B1, the binding result in series [1] (label: 5' FAM on F strand, blunt) was “no binding”. For the molecule TCATGAGCAGTTTTTTTTTTTTTTTTTTT (ssDNA) [29nt ssDNA (co-crystal)], the binding result in series [2] is “binds”. CGCUCUUCGCCAUUCUCUUGAAGUUUCAAACUUGG (ssRNA) [35nt RNA]: the binding result in series [3] is “no binding”.

The record behind these values is paper PMC10904395, “The Deinococcus protease PprI senses DNA damage by directly interacting with single-stranded DNA”.
